Data from article PMC2770657.
Numbering of substitutions follows the chain as printed. Where two headings read alike, the source gives them in different places.

B1: T55 (ssDNA)
DNA: TTTTTTTTTTTTTTTTTTTTTTTTTTTTTTTTTTTTTTTTTTTTTTTTTTTTTTT

How the values were obtained:
Assay in all cases: EMSA
[1] = target: T1, hPifHD (human Pif1 helicase domain) (Homo sapiens, UniProt Q9H611 206-620)
T1 sequence: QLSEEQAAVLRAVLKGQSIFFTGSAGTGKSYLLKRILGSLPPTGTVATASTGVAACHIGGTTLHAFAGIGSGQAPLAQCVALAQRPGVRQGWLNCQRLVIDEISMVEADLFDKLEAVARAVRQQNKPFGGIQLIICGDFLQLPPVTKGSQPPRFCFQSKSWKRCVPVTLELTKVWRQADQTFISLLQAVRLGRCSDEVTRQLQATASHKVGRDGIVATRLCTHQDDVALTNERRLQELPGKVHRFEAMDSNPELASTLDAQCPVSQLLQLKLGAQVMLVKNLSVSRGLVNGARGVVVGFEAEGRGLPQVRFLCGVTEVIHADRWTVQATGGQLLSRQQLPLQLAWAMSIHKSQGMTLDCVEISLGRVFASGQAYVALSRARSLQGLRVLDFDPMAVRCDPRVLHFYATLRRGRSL

[2] = target: T1, hPifHD (human Pif1 helicase domain); remark: listed apart in the source
hPifHD E307Q = target: T2, hPifHD E307Q (Homo sapiens, UniProt Q9H611 206-620, E307Q)
T2 sequence: T1 sequence with E102Q

Row | Binder | binding result [2] | also measured
1 | TTTTTTTTTTTTTTTTTTTTTTTTT (ssDNA) [T25] |  | binding result [1]: no binding
2 | TTTTTTTTTTTTTTTTTTTTTTTTTTTTTTTTTTT (ssDNA) [T35] | binds | 
3 | TTTTTTTTTTTTTTTTTTTTTTTTTTTTTTTTTTTTTTTTTTTTTTTTTT (ssDNA) [T50] | binds | 
4 | B1 |  | binding result (hPifHD E307Q): binds
